# Assay results as given in paper PMC10127277.
# B1: RNF128-E2 nanobody (VHH)
# VHH: QVQLQESGGGLVQAGGSLRLSCAASGSISGGKGMGWYRQAPGKEREFVAAIGSGAITYYADSVKGRFTISRDNAKNTVYLQMNSLKPEDTAVYYCAVYTTALDEYPYWGQGTQVTVSS
# Target: human RNF128 (GRAIL) extracellular domain (human) (UniProt Q8TEB7)
# Assay: SPR; Biacore T100; biotinylated ECD (ligand) captured on a streptavidin (SA) series S chip, ~100-200 RU; non-biotinylated VHH as analyte in HBS-P+ buffer, twofold dilutions from 500 nM (RNF128 E2, RNF130 D1) or 1000 nM (RNF43 C8); injection 60 s at 30 ul/min, dissociation 240 s; regeneration 1 x 10 sec glycine pH 2.5; 1:1 Langmuir model or equilibrium
# human RNF128 (GRAIL) extracellular domain (human), sequence (Q8TEB7 39-428): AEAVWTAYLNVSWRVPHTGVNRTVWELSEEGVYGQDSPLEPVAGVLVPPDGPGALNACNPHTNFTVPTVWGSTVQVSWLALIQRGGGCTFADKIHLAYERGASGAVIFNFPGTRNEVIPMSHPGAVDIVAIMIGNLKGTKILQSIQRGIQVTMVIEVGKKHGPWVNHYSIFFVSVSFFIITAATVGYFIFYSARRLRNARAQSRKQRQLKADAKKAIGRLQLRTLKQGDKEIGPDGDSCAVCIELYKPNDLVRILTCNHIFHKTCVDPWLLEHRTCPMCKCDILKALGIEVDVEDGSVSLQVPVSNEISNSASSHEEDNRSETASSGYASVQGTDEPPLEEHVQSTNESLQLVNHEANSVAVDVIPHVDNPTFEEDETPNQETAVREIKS
binder,measurement,value
B1,Kd,10 nM
